Source: paper PMC11484706

Legend:
Assay in all cases: PU-beads capture (affinity pull-down), immunoblot band quantification
Conditions in all cases: HEK293 cells transfected with the mutant; n = 3; input = 2% of protein incubated with the beads; read off a plot
[1] = target: PU-beads (PU-H71 epichaperome affinity probe)
[2] = target: HSP110 (endogenous, HEK293)
[3] = target: AHA1 (endogenous, HEK293)
HOP (endogenous, HEK293) = target: HOP (endogenous, HEK293)

mCherry WT HSP90β (HEK293) S226A; S255A
response (normalized to MDA-MB-468) [1]: 0.65 | response (normalized to MDA-MB-468) [2]: 0.63 | response (normalized to MDA-MB-468) [3]: 0.65 | response (normalized to MDA-MB-468) (HOP (endogenous, HEK293)): 0.25
